T1: biotinylated OX40 recombinant protein (UniProt P43489 29-216, limits assumed, biotinylated (site not stated))
T1 construct: also called Biotin-OX40
T1 sequence (looked up): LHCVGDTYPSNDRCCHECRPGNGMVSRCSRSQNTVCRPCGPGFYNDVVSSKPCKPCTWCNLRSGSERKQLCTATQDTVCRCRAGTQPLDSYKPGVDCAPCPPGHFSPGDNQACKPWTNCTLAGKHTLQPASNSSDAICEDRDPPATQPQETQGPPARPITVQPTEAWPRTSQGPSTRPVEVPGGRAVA

T2: human OX40 protein expressed on the surface of cells (human, UniProt P43489 29-277)
T2 sequence (looked up): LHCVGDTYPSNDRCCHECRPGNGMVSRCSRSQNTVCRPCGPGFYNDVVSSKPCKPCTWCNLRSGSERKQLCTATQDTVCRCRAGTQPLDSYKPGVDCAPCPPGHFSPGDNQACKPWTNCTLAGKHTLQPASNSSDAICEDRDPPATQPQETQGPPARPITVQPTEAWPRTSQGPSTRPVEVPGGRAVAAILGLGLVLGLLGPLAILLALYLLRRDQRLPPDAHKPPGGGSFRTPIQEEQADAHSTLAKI


Columns and labels:
[1] = biological target: T1, biotinylated OX40 recombinant protein; test: ELISA: OX40L coated, biotinylated OX40 titrated (x axis is its concentration in nM), OD 450nm
[2] = biological target: T2, human OX40 protein expressed on the …; test: cell-based or functional assay

| EC50 (read off the curve) [1] | EC50 (MFI of GFP), NF-kb GFP Jurkat reporter cells, without cross-linking [2] | EC50 (MFI of GFP), NF-kb GFP Jurkat reporter cells, cross-linked with anti-human IgG [2] | EC50 of IL-2 secretion, primary CD4+ T cells pre-activated with anti-CD3 and anti-CD28, cross-linked [2] | Binder |
| --- | --- | --- | --- | --- |
| ~0.5 nM | 45 nM |  |  | OX40L (trimeric OX40L recombinant protein) (ligand, UniProt P23510 51-183, looked up, Bought recombinant protein; also called OX40 ligand) QVSHRYPRIQSIKVQFTEYKKEKGFILTSQKEDEIMKVQNNSVIINCDGFYLISLKGYFSQEVNISLHYQKDEEPLFQLKKVRSVNSLMVASLTYKDKVYLNVTTDNTSLDDFHVNGGELILIHQNPGEFCVL |
|  |  | 2.9 nM | 0.2 nM | anti-OX40 antibody HFB10-1E1hG1 (antibody, human IgG1, kappa, V domains shown) VH: not shown VL: DIQMTQSPSSVSASVGDRVTITCRASQGISSWLAWYQQKPGKAPKLLIYAASSLQSGVPSRFSGSGSGTDFTLTISSLQPEDFATYYCQQANSFPLTFGGGTKLEIKR |

Reference: patent publication US20230061604A1 (HIFIBIO HK, published 2023)
